In general, EC50 refers to the concentration giving half of the maximal effect. Read a low EC50 as a more potent agent.

Results on 20 molecules are retold here after patent US12709641B2, “Tau binding compounds” (VOYAGER THERAPEUTICS, INC., dated 2026).

Changes are numbered by the printed parent chain.

B1: V00010 (antibody, V domains shown)
VH: QIQLVQSGPELKKPGETVKISCKASGYSFTTYGMSWVKQAPGKGLKWMGWINTYSGVPTYADDFKERFAFSLETSASTAYLQINNLKNEDTSTYFCARRGGLYDGYYGYWGQGTTLTVSS
VL: DIVMSQSPSSLAVSAGEKVTMSCKSSQSLLSSRTRKNYLAWYQQKPGQSPKLLIYWASTRESGVPDRFTGSGSGTDFTLTITTVQAEDLAVYYCKQSYNLWTFGGGTKLEIK
B2: V2001 (antibody, V domains shown)
VH: DVQLVESGGGLVQPGGSRKLSCAASGFIFSSFGMHWVRQAPEKGLEWVAYISSGSATIYYADTVKGRFTISRDNPKNTLFLQMTSLRSEDTAMYYCARKRGSGNYVSAMDFWGQGTSVTVSS
VL: DVLMTQTPLSLPVSLGDQASISCRSGQSIVHSNGNTYLEWYLQKPGQSPKLLIYKVSNRFSGVPDRFSGSGSGTDFTLKISRVEAEDLGVYYCFQGSHVPWTFGGGTKLEIK
B3: V00011 (antibody, V domains shown)
VH: EVQLVESGGGLVKPGGSLKLSCAASGFTFSDYGMYWVRQAPEKGLEWVAYISSGSTTIYYADTVKGRFTISRDNAKNTLFLQMTSLRSEDTAMYYCAGHWYFDVWGTGTTVTVSS
VL: B2 VL with L9V, G26S, Y37H, G96D
B4: V0047 (antibody, V domains shown)
VH: EVQLVESGGGLVKPGGSLKLSCAASGFTFSDYGMHWVRQAPEKGLEWVAYISSGSRTIYYADTVKGRFTISRDNAKNTLFLQMTSLRSEDTAMYYCARSPYAMDYWGQGTSVTVSS
VL: B2 VL with L3V, G26S, I29L, E39H, Y92F, F94S, G96S, S97T
B5: V0001 (antibody, V domains shown)
VH: EVQLVESGGGLVQPKGSLKLSCAASGFTFNTYAMYWVRQAPGKGLEWVARIRSKSSNYATYYADSVKDRFTISRDDSQSKLYLQMNNLKTEDTAMYYCVREGLWYYFDYWGQGTTLTVSS
VL: DIQMTQITSSLSASLGDRVTISCRASQDISNYLNWYQQKPDGTVKLLIYSTSRLHSGVPSRFSGSGSGTDYSLTISNLEPEDIATYYCQQYSKLLPTFGSGTKLEIK
B6: V0043 (antibody, V domains shown)
VH: DVQLQESGPGLVKPSQSLSLTCSVSGYSITTNYFWNWIRLFPGNKLEWMGYISYDGSNVYNPSLKNRISITRDTSKNQFFLKLNSLTTEDTATYYCARGPPSAYWGQGTLVTVSA
VL: SIVMTQSPKFLPVSAGDRVTMTCKASQSVGNNVAWYQQKPGQSPKLLIYYASNRYTGVPDRFTGSGSGTDFTLTISSVQVEDLVVYFCQQHYSSPLTFGAGTKLELK
B7: V0045 (antibody, V domains shown)
VH: DVQLQESGPGLVKPSQSLSLTCSVTGYSITTNYYWNWIRQFPGNKLEWMGYISYDGSSNYNPSLKNRISITRDTSKNQFFLNLNSVTTEDTATYYCARDLLGYWGQGTTLTVSS
VL: B6 VL with S7T, V29L, L73F, V84A, L96R, A100G, L106I, K107R
B8: V0042 (antibody, V domains shown)
VH: DVQLQESGPGLVKPSQSLSLTCSVTGYSITTNYYWNWIRQFPGNKLEWMGYITYDGIKTYNPSLNNRISITRDTSKNQFFLKLNSVTTEDTATYYCARGPGLDYWGQGTTLTVSS
VL: B6 VL with S7T, G64A, L73F, V84A, L96Y, A100S, K103N, L106I
B9: V0044 (antibody, V domains shown)
VH: B6 VH with S25T, F34Y, L40Q, S53T, V59N, L86V, S102T
VL: B6 VL with S1N, S7T, V13I, S14A, T20I, A34G, Q38L, Y50F, L73F, V84A
B10: V0008 (antibody, V domains shown)
VH: QVQLKESGPGLVAPSQSLSITCTVSGFSLTTYAISWVRQPPGKGLEWLGVIWTGGGTDFNSALKSRLSISKDNSKSQVFLKMISLQTNDTARYYCARKGGSYYSTTYVGLYAMDYWGQGTSVTVSS
VL: DIQMTQTTSSLSASLGDRVTISCRASQDISNYLNWYQQKPAGTVKLLIYYTSRLHSGVPSRFSGSGSGTDYSLTISNLEQEDVATYFCQQGNTLPWTFGGGSKLEIK
B11: V0007 (antibody, V domains shown)
VH: EVQLVESGGDLVKPGGSLKLSCAASGFTFSSYGLSWVRQTPDKRLEWVATISSGGDYTYYPDSVKGRFTISRDNAKNILYLHMSSLKSEDTAMYYCAREDGYYVGTMDYWGQGTSVTVSS
VL: DIQMTQSPSSLSASLGERVSLTCRASQDIGSSLNWLQQEPDGTFKRLIYATSSLDSGVPKRFSGSRSGSDYSLTISSLESEDFVDYYCLQYDSLPLTFGAGTKLELK
B12: V1005 (antibody, V domains shown)
VH: QVTLKESGPGKLQPSQTLSLTCSFSGFSLSTSGMGVSWIRQPSGKGLEWLAHIYWDDDKRYNPSLKSRLTISKDTSRNQVFLKITSVDTADTATYYCARGWLRRKDYSAMDYWGQGTSVTVSS
VL: NIVMTQSPKSMSMSVGERVTLSCKASEHVGPYVSWYQHKAEQSPKLLIYGASNRYTGVPDRFTGSGSATDFTLIISSVQAEDLADYHCGQTYSYPLTFGAGTKLELK
B13: V0036 (antibody, V domains shown)
VH: QVTLKESGPGILQPSQTLNLTCSFSGFSLSTSGMGVSWIRQPSGKGLEWLAHIYWDDDKRYNPSLKSRLTISKDTSRNQVFLKITSVDTADTATYYCVRRSRRGNYDYWGQGTTLTVSS
VL: not shown
B14: V0006 (antibody, V domains shown)
VH: QVQLKESGPGLVAPSQSLSITCTVSGFSLTSYAISWVRQPPGKSLEWLGVIWTGGGSKYNSALKSRLSISKDNSKSQVFLKMNSLQTDDTARYYCVRNYDYYRYEGFDYWGQGTLVTVSA
VL: DIKMTQSPSSLSASLGEGVSLTCRASQDIGSSLHWLQQKPDGTIKRLIYGTSTLDSDVPKRFSGSRSGSDYSLTISSLESEDFVDYFCLQYATSPPTFGGGTKLEIK
B15: V1003 (antibody, V domains shown)
VH: EVKLVESGGGLVKPGGSLKLSCAASGFTFSSYAMSWVRQIPEKRLEWVAAINSNGGSTYYPDTVKDRFTISRDNAKNTLYLQMSSLRSEDTALYYCVRQGWDAWFAYWGQGTLVAVSA
VL: DIKMTQSPSSMYASLGERVTITCKASQDINSYLSWFQQKPGKSPKTLIYRANRLVDGVPSRFSGSGSGQDYSLTISSLEYEDMGIYYCLQYDEFPLTFGAGTKLELK
B16: V1001 (antibody, V domains shown)
VH: EVQLVESGGGLVKPGGSLKLSCAASGFTFSSYAMSWVRQTPEKRLEWVAAINSNGGRTYYPDTVKDRFTISRDNAKNTLYLQMSSLRSEDTALYYCARQGHSNYYEAWFAYWGQGTLVTVSA
VL: B15 VL with V19L, T20S, S34N, Y80D, K107R
B17: V1004 (antibody, V domains shown)
VH: B15 VH with K3Q, I40T, T58I, S84I, V97A, W101G, D102S, A103S, A106V, A115T
VL: B15 VL with T5I, S77R, M83V, I85L, L89Q
B18: V0049 (antibody, V domains shown)
VH: QVTLKESGPGILQSSQTLSLTCSFSGFSLSTSGMGVSWIRQPSGKGLEWLAHIYWDDDKRYNPSLKSRLKISKDTSRNQVFLKITSVDTADTATYYCARRGYYSNGNYFDYWGQGTTLTVSS
VL: QIVLTQSPTTMAASPGEKITITCSASSSISSTYLHWYQQKPGFSPKLLIYRTSNLASGVPARFSGSGSGTSYSLTIGTMEAEDVATYYCQQGSSIPRYTFGGGTKLEIK
B19: V0025 (antibody, V domains shown)
VH: QVQLQQPGTELVKPGASVKLSCKASGFTFTRFWMHWVKQRPGQGLEWIGNINPNNGETNYNEKFKIKAALTVDKSSTTAYMQLSSLTSEDSAVYSCARGTGTGAMDYWGQGTSVTVSS
VL: DVVMTQTPLSLPVSLGDQASISCRSSQSLVHSTGNTYLYWYLQKPGQSPKLLIYRVSTRFSGVPDRFSGSGSGTDFTLKINRVEAEDLGVYFCFQGTHVPRTFGGGTKLEIK
B20: V0003 (antibody, V domains shown)
VH: QVQLQQPGTELVKPGASVKLSCKASGYTFTKNWLHWVKQRPGQGLEWIGYINPSNGATNYNERFKSKASLTVDKSSTTAYMQLSSLTSEDSAVYYCARSGGWLLPYYAMDYWGHGTSVTVSS
VL: EIVLIQSPALMAASPGEKVTITCSVSSSISSSNLHWYQQQSGTSPKPWILATSNLASGVPVRFSGSGSGTSYSLTISSMEAEDAATYYCQQWSSYPFTFGTGTKLEIK

The test has as its target enriched paired helical filament tau protein (ePHF) (human, phosphorylated residues of pathological tau, sites not stated). Briefly: direct ELISA. On the procedure:
Variable domain nucleic acid sequences from antibodies obtained from immunizations described above were used to prepare recombinant mouse IgG antibodies. These candidate antibodies were analyzed for binding to ePHF and specificity for ePHF over wild type tau by direct ELISA.
For direct ePHF and wildtype tau ELISA, plates were first coated with ePHF or wild type tau. Antigen solutions were prepared in PBS and 50 μL were pipetted into each well. Plates were covered and incubated for one hour at 37° C. or overnight at 4° C. Plates were then washed and blocked by addition of 150 μl of blocking buffer to each well and incubated one hour at room temperature. Plates were then washed before addition of serially diluted candidate antibody samples prepared in blocking buffer. Detection of candidate antibody binding was carried out by washing plates and adding a solution of enzyme-labeled secondary antibody in blocking buffer to each well. Secondary antibody binding was detected by addition of substrate and spectrophotometric analysis of resulting reaction product.
In general terms: In an ELISA, binding on a coated surface is turned into a signal by an enzyme label.
B1 had an EC50 of 0.134 nM. This counts as sub-nanomolar.
In turn, B2 gave an EC50 of 0.237 nM.
B3 returned an EC50 of 0.171 nM.
In the case of B4, the EC50 is 0.118 nM.
Then B5, with 0.126 nM.
The same measure for B6: 0.581 nM; for B7: 0.618 nM.
Then B8, with 0.869 nM; and B9, with 0.209 nM.
B10 gave an EC50 of 1.54 nM.
The same measure for B11: 0.74 nM; for B12: 0.48 nM.
The same measure for B13: 6.43 nM.
With B14, the EC50 turned out to be 0.861 nM. Against the preceding molecule, the EC50 is about 7.5-fold lower.
As to B15, the EC50 came out at 0.234 nM.
The same measure for B16: 0.401 nM; for B17: 0.069 nM.
Then B18, with 0.053 nM.
The same measure for B19: 0.098 nM; for B20: 2.83 nM.
